17 sequences from a protein production outcome set (Wang et al. 2014) can be followed below.
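Note: failed if final PepcDB status was selected cloned or expressed and not failed if soluble or beyond.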

This data set can be described thus: label from the status in PepcDB records.
As to “MEPNKDDNVSLAATAQISAPPVLQDASSLPGFSAIPPVVPPSFPPPMAPIPMMPHPPVARPPTFRPPVSQNGGVKTSDSDSESDDEHIEISEESKQVRERQEKALQDLLVKRRAAAMAVPTNDKAVRDRLRRLGEPITLFGEQEMERRARLTQLLTRYDINGQLDKLVKDHEEDVTPKEEVDDEVLEYPFFTEGPKELREARIEIAKFSVKRAAVRIQRAKRRRDDPDEDMDAETKWALKHAKHMALDCSNFGDDRPLTGCSFSRDGKILATCSLSGVTKLWEMPQVTNTIAVLKDHKERATDVVFSPVDDCLATASADRTAKLWKTDGTLLQTFEGHLDRLARVAFHPSGKYLGTTSYDKTWRLWDINTGAELLLQEGHSRSVYGIAFQQDGALAASCGLDSLARVWDLRTGRSILVFQGHIKPVFSVNFSPNGYHLASGGEDNQCRIWDLRMRKSLYIIPAHANLVSQVKYEPQEGYFLATASYDMKVNIWSGRDFSLVKSLAGHESKVASLDITADSSCIATVSHDRTIKLWTSSGNDDEDEEKETMDIDL”, the protein production entry was “failed”.

Regarding “MKLAIIIPVYNAEETIKRAILSVDTSVPYEIICINDGSTDQTQHVLTELQQKHPHIKVIHQSNQGAARSRNVGLEAMSEDVDAFLFLDADDEFLPSRIDLMVNAFNKNKETDVVIGQMARDVNGEWQVISTHQSMVKDAIVTLDRKPDILQSIGPGAKLFSSKYAGLRFDEDVVFCEEHTFIVKAFSKARDIQLIPNIVYGYNEREGSVTAQRADTFLPYMSDALKVRQRVMELLLLLDEKIYYSYRMDNLIVSYLIQAHLKKNNKITQSLLESVIEYMKAMQHTHYSGEAMFRIVRAVEQSATHWTKPLYLQWKKALSEVGIGRPGLIRFKLQVIPKKISFSGKESLKRIFKK”, the protein production entry is on record as “failed”.

As to “MKVRNVIIGFMVASLTGCSMGHRDPVEIKQTLDKSINENGGLLLADLPASVQADLMPELNTPHVEVEEPVKRFRVRANGVGAKAFFTSLVKGTEYSVVIHPQVSGRITMNLSDVTMDDVLSSVEDLYGYDIVKAGKVLQVYPATIRTETIPVDYLQLTRKGRSLTTITTGSITNSDNNSSNNNNSSSKSNNNSSSSSSSATGGTEIETTSESDFWKELETAISVMIGNGADRSVVVSPQASVVTITASPDELRKVKQFLGTSHKRLQRQVILEAKLLEVTLSDGYQQGINWSNLTASLGGTDVVFGQTSGLVQGALPGMDTIGTLLGGQTNITVSDGNFQAVLSFMDTQGDLNVLSSPRVTAANNQKAVIKVGRDEYYVTEVSSVTGSGDNSNASPEVTLTPFFSGISLDVTPQIDDKGNVMLHVHPSVIDVENEVKEIDLGDVGGVLKLPLAKSSIRESDSVIRAKSGDVVVIGGLMKSQTVDQVSKVPLLGDVPALGHLFRNVSQLTQKTELVILLKPTVVGVDTWQEELERSRDLLQEWFPDELEHHHHHH”, the protein production result is recorded as “not failed”.

Regarding “SAQEKMELDLELPPGTGGSPAEGGGSGGGGGLRRSNSAPLIHGLSDTSPVFQAEAPSARRNSTTFPSRHGLLLPASPVRMHSSRLHQIKQEEGMDLINRETVHEREVQTAMQISHSWEESFSLSDNDVEKSASPKRIDFIPVSPAPSPTRGIGKQCFSPSLQSFVSSNGLPPSPIPSPTTRFTTRRSQSPINCIRPSVLGPLKRKCEMETEYQPKRFFQGITNMLSSDVAQLSDPGVCVSSDTLDGNSSSAGSSCNSPAKVSTTTDSPVSPAQAASPFIPLDELSSK”, the protein production entry is listed as “not failed”.

Turning to “MKITLEHWFYNWLFEYRIKDLKPKSFERYESIYRNYIKDTDLGNVKLKYLRVSHIQKYYNRLLDSNKSIPTIRQINTKLKTCLSEAEKQGLIQRNYCTMVNIPLEHHHHHH”, the protein production entry is reported as “not failed”.

“MSDIESLGEAAGLFEEPEDFLPPPPKPHFAEYQRSHITKESKSDVKDIKLRLVGTSPLWGHLLWNAGIYTANHLDSHPELIKGKTVLELGAAAALPSVICALNGAQMVVSTDYPDPDLMQNIDYNIKSNVPEDFNNVSTEGYIWGNDYSPLLAHIEKIGNNNGKFDLIILSDLVFNHTEHHKLLQTTKDLLAEKGQALVVFSPHRPKLLEKDLEFFELAKNEFHLVPQLIEMVNWKPMFDEDEETIEVRSRVYAYYLTHEK”: the protein production result is “failed”.

With “MDIRRIVLYMALALIGLSLWNAWQIDYPAKQPVEEKTASQLTSDGHLLPQIIPSNAEQPVTLKAEEKASSGKQLIQVKTDVLDVDIDLKNGDIVKGLLLDYPLSVEDKNKPFPLLQNQASQRYVANSSLFVLDGQTPQSLDFDFTSEKEYYELKPDQNQLIVTLNGKSEDGLDVKKEFVFTKGSYLIEVNYKIANTGNSLWKGYFNTQLLRSSPKEDKSSIFHIGSYTGASFSNPGKNRYQKVSFSDMSKSNLDVDAKGGWIAMQQHYFLSAWVPNADSENKFYTLATDKDYTIGAVSQPITVKPKEDKIVGSKLYIGPEITSVLKGISPSLDLTVDYGILWFLSSLLFSLMKAIYTVVGNWGWSIVLVTVLIKLAFYRLSATSYKSMASMRKLQPKLQALRERYGDDKAKISQATMELYKQEKVNPLGGCLPILIQIPVFIALYWVLLESVELRQAPFIFWINDLASADPYHVLPLIMGATMLIQQKLNPAPADPMQAKVMMFLPILFTGLFWNFPSGLVLYWIVNNTLSILQQWYITRKYSDEKPAKKVVATAK”, the protein production entry is “failed”.

Regarding “MKKIGILTSGGDCGGLNAVIKGAALMALNKGLELYVIPNGYAGLYNLLNQDRLVRLDEARLDQFQASFAGSEAGHSRVKIKAISNPDKYNRIKVGMKKFDLDALIISGGDDSGSVMIDLNHNGIQCIHCPKTMDLDLQTYSVGGDSTINRIAQFVEDLKTTGRTHNRVLVTEVFGRYAGHTAFRSGVAAEADCILIPEIPVDWDVVYEHIVERFTRRIRQSDVHSGTYTIVVAEGMKNADGTDIVDESAGIDAFGHKKLAGAGKYVCQEIKKRFKTDPRMPQFMKDTGMFVEGIYEIPEVREVHPGHLVRAGHSSAYDINFGFEAGAAAVLLLLEGKTGVTISKVKGRKIEYIEASKAIEQRYVDLDQVAMYESIGTCFGRTPAAYEPILREVDGVYERIY”, the protein production result is reported as “failed”.

Take “MANVSMEAKGLLILGFPIAATMIAQTLMSLTDLMLVSRLGEKQVAGVSLGIAVYSFGMLFGLGVITAVTPMIAKAYGRKDFNAVSNYTRQGLWVAALVAMPGVIALILTRSILLFLNVEAETANIASDYCVGALMGLPAFLIYVNLRCFLSAIGRPKTTTWIMFLAVPVNYIIGHVLIFGVMDAEGLGITGAGLASSVTRLAILSTVIATLKYGADFKCFSLFENVMNVKPVVVKKIVLLGLPVGVRILLAEGMLPIIALLISTLGTIDLVAHMVAVRLSGVSAVIALGFSSAASTRVAWQVAANNQNGVRVTGYVASALAFGVSALLAMLLIFFPTELVMLLFDIDDAEVLALTSHLLKVVAAYQILNAIQTAVVGSLLGVSDTKIPTCLVLIGNWLVGLASAYGLVVLFEATVTAVWGGLVLGQVFVVVTCLCRFHMKTKALHE”: the protein production entry was “failed”.

Turning to “MSKVIYKISIDLGGIVKRNFEKETKNCGKVNEEVLFKILKSNDKSEIGIKFKFKDIKSIRQFKDSVPITEYKDYEKYINRMADGEGNVLMSEKVEYFGHTSGTTGKQKLVPCTKNSRRRASKYMALLVNRFCYDNFKENWNYARGMMIADIVMTTYTKGKIPICSATSGGMKGIKHLLPYLYTSPIEVMEIKDKETALYLHLLFGLEEEELLYISGVFISNILDLFRTLEKNNKALVRDIQKGSISEELNIDEGLRKVLNKKLKPNNKRAMELEKEFKKGFKGIAKRIWPNLLYIASVTGANFSIYNDKVYYYIDSIPIYSAAYGSTEAMIGINPYASKVLYVITPSAVFYEFIPIGEKGEESFDTLLLSELKLGGRYEVVITNYAGLYRYKIGDVVKVVGFYNKCPEIEFLYRKNQVLNMAAEKTNEEHLTYAIKNTIKKLNLDLVDYTTEPDNSITPGRYIFYFEFRNNMYGFSTEKLQNILDDELRVSNLAYNRARNNKKLGMLKVEVLAPNTFDLIKEALFNKGISKNQIKIPRVIINNKIVMDIINRNKIKFVKKSVI”, the protein production entry is reported as “failed”.

In the case of “MKMVDELKGNLNSFLILLGIFSFLQFSFKQSFMFPSILPLNIPDSNLLLVIGNISFYFFFVFLLIVSMILSLTYKSLIPLTIILTISPFITLIPNYENSFLLYSLEIAILILGLASTIEGLIKSSLLSILLIPTLVLVNLGIYASILLNIFHNALFISYLTIYLISIAGYLAYVISWGKIKSLRNYIAISVGLLSMIPFIFFENIISHNRYLEILMNMILPSTLGITLYNPYHITLLVMALGLSTMGIVTSLIKGNVSSGVGYFLIITTVFLGIDGFSLLIYMLTPIIGFLVITSSEIESKRRLIDIISPTRNG”, the protein production entry is given as “failed”.

Take “MKELIKEHQKDINPALQLHDWVEYYRPFAANGQSANYIPALGKVNDSQLGICVLEPDGTMIHAGDWNVSFTMQSISKVISFIAACMSRGIPYVLDRVDVEPTGDAFNSIIRLEINKPGKPFNPMINAGALTIASILPGESAYEKLEFLYSVMETLIGKRPRIHEEVFRSEWETAHRNRALAYYLKETNFLEAEVEETLEVYLKQCAMESTTEDIALIGLILAHDGYHPIRHEQVIPKDVAKLAKALMLTCGMYNASGKYAAFVGVPAKSGVSGGIMALVPPSARREQPFQSGCGIGIYGPAIDEYGNSLTGGMLLKHMAQEWELSIF”: the protein production result is recorded as “not failed”.

“MQWRNTSSRYGVFSLFLHWGSALVVFGLFGLGLWMRELSYYDPWYHPAPALHKSIGILLAIALLVRIVWRFVSPPPPAPANHGPLTRVASKLGHLALYGLLLAVIVAGYLISTADGEPISVFGWFSVPATLSGLPDQADVAGEIHLYLAWALVVFAVLHALAALKHHFVDRDPTLKRMLGRSSNDQQPR”: the protein production result was “not failed”.

As for “MTLDPTPALSALRSGDFRTVQKLARRALKLAKGDPGWLNLAAIAESGLGRPKAALPHFQLALKLAPDFHDARRNLAQTLVILGRLDEAERHLQQLTGTNPQDAEAWALLSQAAMGRGDGDAALAAADRYVDLRPGQARGLMLRATLHGRLGDEAAALADLQQAQMAEPDNVDLLIALSLPLARADHPGAAIDVARRAVELAPRHIPARLTLAMRHVEQGDSDAAKAMYHRVLEIAPDQAEALEQLAHLNDAAENQRLAPQVQTALKTAEAGSLDKAQLHFALARIAAQSADDDGLARNLTRANATMARLMPYDAGADTRLSEALMARFAPGADCDGPGDGPAPFYVLGLPRSGTSLTEAVLGAHPVVHPLGERIAPGRLLAPLIDGGLPFDAQARAAFRKGEAASLPALPEGTRFYTDKMPENYRLVGFLLAARGDARVIHLRRDPRDVALSLWQAHLAGSALNYAYDLGAMAHRFNLYARMMAHWRAIFPDRILDLPYEELVADVTRASQRLAEWLGLVWDPEMARPERSTSQILTLSASQLRQPVHTRSVGKWRKHEAMLAPFIAGLDPGLWPELGQSGI”, the protein production result is recorded as “failed”.

Consider “MTNQRTMVVGYDGSEESNLAVQWAAKHAILRDCSLHVVHCSLWVLLSHNRGPVPGVADSGLERAAQKVLEEGMALAKETVPDLEVRTTLLHGMPRDHLAHVSVGAEMLVLGSRGLGGFMGLLVGSVSLEMAATAECPVVVIRADDHPEGPVLLAVDDAGSPAALEDACDFAAATGADLMIVHVLHEPVGYRRLREPVEAYPEAEALLDSVLSQARHKAPGIAVTGELLVDASFSKAIVKASQGARITVLGTKGHGLIKGTIGSTAHAVLHHAHSPVLVSRRRATSEVA”, for which the protein production result was “failed”.

“MSFSDHFSAVAASYAKARPRYPQRWFRYLARIVPDRQRVWDCATGNGQAAIALAEYFSEVIGSDASAAQVRQARSHPRVQYLVFPAEATPLAPASLDLITVAQAAHWFDLPQFYIEAQRLLRPGGVIALWGYGLGSLNPAIDHVFNHFYRDWLDPYWPPERQWVEQAYEGLSFPFEPLPTPTFSMQCDWTLFDLLAYLRTWSGVQQFQRQRGFDPVWAIAPELQRVWGDPQRYRRITWPLFAKVGRWQPDRVRLEHHHHHH”: the protein production result is on record as “failed”.

As to “MTSFEDADTEETVTCLQMTVYHPGQLQCGIFQSISFNREKLPSSEVVKFGRNSNICHYTFQDKQVSRVQFSLQLFKKFNSSVLSFEIKNMSKKTNLIVDSRELGYLNKMDLPYRCMVRFGEYQFLMEKEDGESLEFFETQFILSPRSLLQENNWPPHRPIPEYGTYSLCSSQSSSPTEMDENES”, the protein production result is “failed”.
